# Source: paper PMC8651671
# T1: SerA (Achromobacter denitrificans, UniProt A0A3R9FY19)
# T1 sequence (A0A3R9FY19 1-399): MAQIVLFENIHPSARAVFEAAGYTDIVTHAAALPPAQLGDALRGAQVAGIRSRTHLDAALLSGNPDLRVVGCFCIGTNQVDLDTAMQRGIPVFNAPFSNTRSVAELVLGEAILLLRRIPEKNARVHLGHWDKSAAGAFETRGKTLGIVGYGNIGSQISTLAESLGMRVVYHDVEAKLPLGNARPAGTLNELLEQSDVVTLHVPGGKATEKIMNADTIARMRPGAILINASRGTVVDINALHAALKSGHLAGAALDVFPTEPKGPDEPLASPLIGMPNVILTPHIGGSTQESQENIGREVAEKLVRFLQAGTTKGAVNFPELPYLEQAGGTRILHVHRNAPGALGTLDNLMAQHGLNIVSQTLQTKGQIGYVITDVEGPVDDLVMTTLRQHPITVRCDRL
# T2: DhdR (GntR family regulator) (Achromobacter denitrificans NBRC 15125, UniProt A0A6N0JVZ6 1-238)
# T2 sequence: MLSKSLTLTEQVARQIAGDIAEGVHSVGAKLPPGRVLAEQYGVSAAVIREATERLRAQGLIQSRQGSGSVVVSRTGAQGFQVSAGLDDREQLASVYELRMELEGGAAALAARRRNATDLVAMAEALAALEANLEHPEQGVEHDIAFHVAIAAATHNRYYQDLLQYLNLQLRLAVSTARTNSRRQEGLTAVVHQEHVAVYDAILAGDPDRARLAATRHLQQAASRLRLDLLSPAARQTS
# B1: D0 (dhdO 0#) (dsDNA)
# DNA 1: AAAGTTATCAGATAACCTGAAAAGTAG
# DNA 2: CTACTTTTCAGGTTATCTGATAACTTT
# B2: D1 (dhdO 1#) (dsDNA)
# DNA 1: AAATTTATCAGATAACCTGAAAAGTAG
# DNA 2: CTACTTTTCAGGTTATCTGATAAATTT
# B3: D10 (dhdO 10#) (dsDNA)
# DNA 1: AAATTTAGCAGATAACCTGAAAAGTAG
# DNA 2: CTACTTTTCAGGTTATCTGCTAAATTT
# B4: D11 (dhdO 11#) (dsDNA)
# DNA 1: AAATTTATAAGATAACCTGAAAAGTAG
# DNA 2: CTACTTTTCAGGTTATCTTATAAATTT
# B5: D12 (dhdO 12#) (dsDNA)
# DNA 1: AAAGGGATCAGATAACCTGAAAAGTAG
# DNA 2: CTACTTTTCAGGTTATCTGATCCCTTT
# B6: D13 (dhdO 13#) (dsDNA)
# DNA 1: AAAGGTCTCAGATAACCTGAAAAGTAG
# DNA 2: CTACTTTTCAGGTTATCTGAGACCTTT
# B7: D2 (dhdO 2#) (dsDNA)
# DNA 1: AAAGGTATCAGATAACCTGAAAAGTAG
# DNA 2: CTACTTTTCAGGTTATCTGATACCTTT
# B8: D3 (dhdO 3#) (dsDNA)
# DNA 1: AAAGTGATCAGATAACCTGAAAAGTAG
# DNA 2: CTACTTTTCAGGTTATCTGATCACTTT
# B9: D4 (dhdO 4#) (dsDNA)
# DNA 1: AAAGTTCTCAGATAACCTGAAAAGTAG
# DNA 2: CTACTTTTCAGGTTATCTGAGAACTTT
# B10: D5 (dhdO 5#) (dsDNA)
# DNA 1: AAAGTTAGCAGATAACCTGAAAAGTAG
# DNA 2: CTACTTTTCAGGTTATCTGCTAACTTT
# B11: D6 (dhdO 6#) (dsDNA)
# DNA 1: AAAGTTATAAGATAACCTGAAAAGTAG
# DNA 2: CTACTTTTCAGGTTATCTTATAACTTT
# B12: D7 (dhdO 7#) (dsDNA)
# DNA 1: AAATGTATCAGATAACCTGAAAAGTAG
# DNA 2: CTACTTTTCAGGTTATCTGATACATTT
# B13: D8 (dhdO 8#) (dsDNA)
# DNA 1: AAATTGATCAGATAACCTGAAAAGTAG
# DNA 2: CTACTTTTCAGGTTATCTGATCAATTT
# B14: D9 (dhdO 9#) (dsDNA)
# DNA 1: AAATTTCTCAGATAACCTGAAAAGTAG
# DNA 2: CTACTTTTCAGGTTATCTGAGAAATTT
# Experiments:
# [1] = target: 3-phosphoglycerate dehydrogenase (SerA) of Achromobacter denitrificans NBRC 15125 (Achromobacter denitrificans NBRC 15125); assay: SEC; Superdex 200 10/300 GL, 50 mM sodium phosphate, 150 mM NaCl, pH 7.2, 0.5 mL min^-1; native molecular weight against standard proteins, compared with SDS-PAGE
# WbpB = WbpB (Pseudomonas aeruginosa, UniProt G3XD23); assay: HPLC product analysis, biosensor assay and bound-NADH oxidation with purified enzyme; assay type: biochemical
# [2] = target: D-2-HG dehydrogenase (D2HGDH) of Achromobacter denitrificans NBRC 15125 (Achromobacter denitrificans NBRC 15125); assay: SEC; Superdex 200 10/300 GL, 50 mM sodium phosphate, 150 mM NaCl, pH 7.2, 0.5 mL min^-1; native molecular weight against standard proteins, compared with SDS-PAGE
# DhdR = target: T3, DhdR; assay: ITC; also thermal shift (ΔTm […] °C), EMSA, AlphaScreen; assay type: binding, Achromobacter denitrificans
# T3 construct: His6-tagged DhdR
# SerA = target: T1, SerA; assay: product of 2-KG reduction by purified enzyme; assay type: biochemical
# [3] = target: D-2-hydroxyglutarate dehydrogenase regulator (DhdR) of Achromobacter denitrificans NBRC 15125 (Achromobacter denitrificans NBRC 15125); assay: SEC; Superdex 200 10/300 GL, 50 mM sodium phosphate, 150 mM NaCl, pH 7.2, 0.5 mL min^-1; native molecular weight against standard proteins, compared with SDS-PAGE
# [4] = target: T2, DhdR (GntR family regulator); assay: ITC; EMSA/footprint: 10 mM Tris-HCl pH 7.4, 50 mM KCl, 0.5 mM EDTA, 10% glycerol, 1 mM DTT, 30 C; ITC: 25 C, same buffer as FTS assays (composition not in material); details: protein: recombinant; tags: His6 (pETDuet-1); chain copies: 2; blunt
# [5] = target: T2, DhdR (GntR family regulator); assay: ITC; Supplementary Table 4 prints 3.03; EMSA/footprint: 10 mM Tris-HCl pH 7.4, 50 mM KCl, 0.5 mM EDTA, 10% glycerol, 1 mM DTT, 30 C; ITC: 25 C, same buffer as FTS assays (composition not in material); details: protein: recombinant; tags: His6 (pETDuet-1); chain copies: 2; blunt
# Chain of WbpB (G3XD23 whole entry): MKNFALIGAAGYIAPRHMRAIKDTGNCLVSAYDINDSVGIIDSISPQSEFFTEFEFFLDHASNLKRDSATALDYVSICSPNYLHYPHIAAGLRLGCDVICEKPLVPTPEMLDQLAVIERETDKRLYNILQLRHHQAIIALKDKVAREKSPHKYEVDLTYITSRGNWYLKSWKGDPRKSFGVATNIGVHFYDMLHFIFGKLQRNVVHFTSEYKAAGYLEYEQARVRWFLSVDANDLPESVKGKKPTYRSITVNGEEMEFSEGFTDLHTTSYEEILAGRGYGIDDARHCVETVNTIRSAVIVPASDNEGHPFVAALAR
Molecule,Kd [4] [nM],also measured
3-phosphoglycerate dehydrogenase (SerA) of Achromobacter denitrificans NBRC 15125 (enzyme),–,stoichiometry N [1]: 4
O=C(O)CCC(=O)C(=O)O [2-KG],–,"HPLC product analysis, biosensor assay and bound-NADH oxidation with purified en (WbpB): confirmed that WbpB also catalyzes the reduction of 2-KG to produce D-2-HG"
D-2-HG dehydrogenase (D2HGDH) of Achromobacter denitrificans NBRC 15125 (enzyme),–,stoichiometry N [2]: 2
O=C(O)CC[C@@H](O)C(=O)O [D-2-HG],–,Kd (DhdR): 1160 ± 160 nM; product of 2-KG reduction by purified enzyme (SerA): It was also able to reduce 2-KG to D-2-HG
D-2-hydroxyglutarate dehydrogenase regulator (DhdR) of Achromobacter denitrificans NBRC 15125 (natural protein),–,stoichiometry N [3]: 2
B1,640 ± 100,–
B2,–,Kd [5]: 3290 ± 720 nM
B3,–,binding result [4]: no binding
B4,3230 ± 1410,–
B5,6250 ± 1820,–
B6,2460 ± 510,–
B7,2670 ± 530,–
B8,1190 ± 250,–
B9,580 ± 90,–
B10,1140 ± 370,–
B11,730 ± 180,–
B12,5810 ± 2150,–
B13,4020 ± 920,–
B14,3230 ± 1270,–
